The values below come from PMC4515032.

The target in the test is mCherry-tagged mutant Htt exon 1 (HttQ91). Nature of the test: FRET or BRET. (In BRET a luciferase serves as donor, and the signal depends on an acceptor being close.)

Take “YFP-tagged wild-type Htt exon 1 (HttQ25) (domain or fragment)”: the mean FRET efficiency worked out at 16.3%.
